Assay results as given in US20030091564A1 (published 2003).

Key:
CD40/Fc fusion protein [1] = molecular target: T1, CD40/Fc fusion protein (human, UniProt P25942 21-193); assay: biosensor assay substantially as in Example 22; yeast-expressed protein
T1 construct: extracellular domain; also called C40/Fc; CD40Fc recombinant receptor
Protocol: (§1) The biosensor chips were coated with goat anti-human IgG₁ Fc, which was used to bind CD40/Fc (prepared as described in Example 1) to the chip. The different constructs of CD40-L were then added at increasing concentrations; the chip was regenerated between the different constructs by the addition of sodium hydroxide. Two separate experiments were performed. In the first, the binding of a dimeric human CD40-L (Example 14), trimeric human CD40-L (Example 15), dimeric murine CD40-L (prepared substantially as described in Example 14 for human CD40-L/FC) and trimeric murine CD40-L (prepared substantially as described for the human CD40-L in Example 15) were compared. In the second experiment, the binding of trimeric human CD40-L was compared to the binding of two different preparations of monomeric human CD40-L prepared as described in Example 18. The resultant data were analyzed to determine the affinity and association rate constants of the different CD40-L constructs. Results are shown in Table 12 below, and in FIGS. 18 and 19.
Mutant 18PP had only a single mutation in the molecule, which was sufficient to affect secretion in yeast. Mutant 41 had two mutations, both of which were in the isoleucine residues of the zipper domain. The mutations in the zipper improve secretion from yeast without apparent effect on activity.

CD40 on cells = CD40 on cells (UniProt P25942 21-277, limits assumed); assay: cell-based or functional assay
Chain of CD40 on cells (P25942 21-277 limits assumed): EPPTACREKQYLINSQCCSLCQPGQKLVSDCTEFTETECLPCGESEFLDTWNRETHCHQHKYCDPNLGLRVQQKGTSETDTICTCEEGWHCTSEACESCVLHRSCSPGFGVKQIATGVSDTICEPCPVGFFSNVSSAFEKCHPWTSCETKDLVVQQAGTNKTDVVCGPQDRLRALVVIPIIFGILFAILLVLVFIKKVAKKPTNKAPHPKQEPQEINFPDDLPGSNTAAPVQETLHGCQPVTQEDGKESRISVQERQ

CD40/Fc fusion protein [2] = molecular target: T1, CD40/Fc fusion protein; assay: BIAcore biosensor, CD40/Fc captured by goat anti-human IgG1 Fc; first experiment; K1 (site 1)
Protocol: (§2) This example illustrates the binding affinities of several different CD40-L constructs. Affinity experiments were conducted by biospecific interaction analysis (BIA) using a biosensor, an instrument that combines a biological recognition mechanism with a sensing device or transducer. An exemplary biosensor is BIAcore™, from Pharmacia Biosensor AB (Uppsala, Sweden; see Fägerstam L. G., Techniques in Protein Chemistry II, ed. J. J. Villafranca, Acad. Press, NY, 1991). BIAcore™ uses the optical phenomenon surface plasmon resonance (Kretschmann and Raether, Z. Naturforschung, Teil. A 23:2135, 1968) to monitor the interaction of two biological molecules.
as §1

CD40/Fc fusion protein [3] = molecular target: T1, CD40/Fc fusion protein; assay: BIAcore biosensor, CD40/Fc captured by goat anti-human IgG1 Fc; first experiment
Protocol: as §2, §1

CD40/Fc fusion protein [4] = molecular target: T1, CD40/Fc fusion protein; assay: BIAcore biosensor, CD40/Fc captured by goat anti-human IgG1 Fc; first experiment; K2 (site 2)
Protocol: as §2, §1

CD40/Fc fusion protein [5] = molecular target: T1, CD40/Fc fusion protein; assay: BIAcore biosensor, CD40/Fc captured by goat anti-human IgG1 Fc; second experiment; K1 (site 1)
Protocol: as §2
(§3) The biosensor chips were coated with goat anti-human IgG₁ Fc, which was used to bind CD40/Fc (prepared as described in Example 1) to the chip. The different constructs of CD40-L were then added at increasing concentrations; the chip was regenerated between the different constructs by the addition of sodium hydroxide. Two separate experiments were performed. […] The resultant data were analyzed to determine the affinity and association rate constants of the different CD40-L constructs. […]

CD40/Fc fusion protein [6] = molecular target: T1, CD40/Fc fusion protein; assay: BIAcore biosensor, CD40/Fc captured by goat anti-human IgG1 Fc; second experiment; K2 (site 2)
Protocol: as §2, §3

CD40/Fc fusion protein [7] = molecular target: T1, CD40/Fc fusion protein; assay: BIAcore biosensor, CD40/Fc captured by goat anti-human IgG1 Fc; second experiment
Protocol: as §2, §3

T1 sequence (P25942 other isoform, or with tags, fused parts or gaps limits assumed): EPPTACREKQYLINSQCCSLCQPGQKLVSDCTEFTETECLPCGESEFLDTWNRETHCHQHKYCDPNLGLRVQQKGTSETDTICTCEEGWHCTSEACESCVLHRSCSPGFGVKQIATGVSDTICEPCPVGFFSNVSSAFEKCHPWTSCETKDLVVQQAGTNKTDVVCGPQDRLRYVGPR

Ka (CD40/Fc fusion protein [1]) | B-cell proliferation (U/µg), Experiment 2 (CD40 on cells) | Ka (CD40/Fc fusion protein [2]) | Site 1 (mol/mol CD40/Fc) (CD40/Fc fusion protein [3]) | Site 2 (mol/mol CD40/Fc) (CD40/Fc fusion protein [3]) | Ka (CD40/Fc fusion protein [4]) | Ka (CD40/Fc fusion protein [5]) | Ka (CD40/Fc fusion protein [6]) | Site 2 (mol/mol CD40/Fc) (CD40/Fc fusion protein [7]) | Binder
7.7e+07 M⁻¹ | 15 U/µg |  |  |  |  |  |  |  | wild type CD40 ligand/zipper domain fusion protein expressed in yeast (ligand, also called WT) not shown
 |  | 6e+10 M⁻¹ | 0.02 mol/mol CD40/Fc | 0.44 mol/mol CD40/Fc | 1.6e+08 M⁻¹ |  |  |  | trimeric murine CD40-L (ligand, also called Murine Trimer; muCD40LT) not shown
 |  |  | 0.05 mol/mol CD40/Fc | 0.14 mol/mol CD40/Fc |  |  |  |  | dimeric murine CD40-L (Fc fusion, not shown: a dimerising Fc or GST, the whole entry is named; also called Murine Dimer) HRRLDKVEEEVNLHEDFVFIKKLKRCNKGEGSLSLLNCEEMRRQFEDLVKDITLNKEEKKENSFEMQRGDEDPQIAAHVVSEANSNAASVLQWAKKGYYTMKSNLVMLENGKQLTVKREGLYYVYTQVTFCSNREPSSQRPFIVGLWLKPSSGSERILLKAANTHSSSQLCEQQSVHLGGVFELQAGASVFVNVTEASQVIHRVGFSSFGLLKL
 |  | 1.6e+11 M⁻¹ | 0.013 mol/mol CD40/Fc | 0.049 mol/mol CD40/Fc | 7e+08 M⁻¹ |  |  |  | CD40-L/FC2 soluble CD40-L/Fc fusion protein (Fc fusion, also called dimeric human CD40-L; Human Dimer) DYKDDDDKRSCDKTHTCPPCPAPELLGGPSVFLFPPKPKDTLMISRTPEVTCVVVDVSHEDPEVKFNWYVDGVEVHNAKTKPREEQYNSTYRVVSVLTVLHQDWLNGKEYKCKVSNKALPAPIEKTISKAKGQPREPQVYTLPPSRDELTKNQVSLTCLVKGFYPSDIAVEWESNGQPENNYKTTPPVLDSDGSFFLYSKLTVDKSRWQQGNVFSCSVMHGGGGSGGGGSGGGGSSSDKIEDERNLHEDFVFMKTIQRCNTGERSLSLLNCEEIKSQFEGFVKDIMLNKEETKKENSFEMQKGDQNPQIAAHVISEASSKTTSVLQWAEKGYYTMSNNLVTLENGKQLTVKRQGLYYIYAQVTFCSNREASSQAPFIASLCLKSPGRFERILLRAANTHSSAKPCGQQSIHLGGVFELQPGASVFVNVTDPSQVSHGTGFTSFGLLKL
 |  | 5e+09 M⁻¹ | 0.04 mol/mol CD40/Fc | 0.68 mol/mol CD40/Fc | 7.5e+07 M⁻¹ | 6.6e+08 M⁻¹ | 2.6e+07 M⁻¹ | 0.41 mol/mol CD40/Fc | trimeric human CD40-L (ligand, Leader left out; also called Human Trimer; CD40-L trimer) not shown
